From article doi:10.1101/2021.07.30.454553 (bioRxiv, 2021) come the findings set out here.

Test [1] has as its target T1, full-length human kinesin-1 heavy chain (KIF5B) (human, UniProt P33176 1-963, LD555, LD655 or Alexa488 label (imaging assays)).
T1 sequence (looked up): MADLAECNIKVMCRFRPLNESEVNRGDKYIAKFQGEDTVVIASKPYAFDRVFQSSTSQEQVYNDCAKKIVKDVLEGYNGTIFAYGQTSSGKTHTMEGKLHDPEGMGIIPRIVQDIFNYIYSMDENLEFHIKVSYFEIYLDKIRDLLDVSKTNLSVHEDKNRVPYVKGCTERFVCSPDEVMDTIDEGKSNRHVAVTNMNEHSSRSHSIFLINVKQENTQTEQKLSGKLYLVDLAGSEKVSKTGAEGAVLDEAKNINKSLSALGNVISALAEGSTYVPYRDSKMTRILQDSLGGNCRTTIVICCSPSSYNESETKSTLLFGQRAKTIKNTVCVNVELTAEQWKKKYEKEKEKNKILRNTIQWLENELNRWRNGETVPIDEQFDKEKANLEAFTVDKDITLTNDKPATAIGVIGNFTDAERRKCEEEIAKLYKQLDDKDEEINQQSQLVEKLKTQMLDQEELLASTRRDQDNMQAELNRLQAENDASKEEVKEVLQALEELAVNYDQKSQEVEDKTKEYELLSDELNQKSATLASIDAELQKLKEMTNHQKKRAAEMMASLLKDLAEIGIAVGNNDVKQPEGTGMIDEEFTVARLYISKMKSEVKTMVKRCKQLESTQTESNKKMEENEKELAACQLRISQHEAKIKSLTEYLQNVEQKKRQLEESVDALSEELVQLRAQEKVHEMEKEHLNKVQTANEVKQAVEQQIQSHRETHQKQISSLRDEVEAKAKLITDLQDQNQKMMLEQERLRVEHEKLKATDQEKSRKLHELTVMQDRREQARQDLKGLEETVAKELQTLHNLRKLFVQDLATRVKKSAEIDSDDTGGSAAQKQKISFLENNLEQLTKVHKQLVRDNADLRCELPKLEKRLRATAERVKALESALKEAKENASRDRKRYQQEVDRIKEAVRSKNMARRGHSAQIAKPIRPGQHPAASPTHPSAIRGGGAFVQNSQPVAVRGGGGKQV
As to the kind of experiment: single-molecule colocalisation on microtubules.

For test [2], the target named is T1, full-length human kinesin-1 heavy chain …. As to the kind of experiment: cell-based or functional assay.

B1: full-length TRAK2^1-914 (natural protein, human, UniProt O60296 1-914, looked up)
chain: MSQSQNAIFTSPTGEENLMNSNHRDSESITDVCSNEDLPEVELVSLLEEQLPQYRLKVDTLFLYENQDWTQSPHQRQHASDALSPVLAEETFRYMILGTDRVEQMTKTYNDIDMVTHLLAERDRDLELAARIGQALLKRNHVLSEQNESLEEQLGQAFDQVNQLQHELCKKDELLRIVSIASEESETDSSCSTPLRFNESFSLSQGLLQLEMLQEKLKELEEENMALRSKACHIKTETVTYEEKEQQLVSDCVKELRETNAQMSRMTEELSGKSDELIRYQEELSSLLSQIVDLQHKLKEHVIEKEELKLHLQASKDAQRQLTMELHELQDRNMECLGMLHESQEEIKELRSRSGPTAHLYFSQSYGAFTGESLAAEIEGTMRKKLSLDEESSLFKQKAQQKRVFDTVRIANDTRGRSISFPALLPIPGSNRSSVIMTAKPFESGLQQTEDKSLLNQGSSSEEVAGSSQKMGQPGPSGDSDLATALHRLSLRRQNYLSEKQFFAEEWQRKIQVLADQKEGVSGCVTPTESLASLCTTQSEITDLSSASCLRGFMPEKLQIVKPLEGSQTLYHWQQLAQPNLGTILDPRPGVITKGFTQLPGDAIYHISDLEEDEEEGITFQVQQPLEVEEKLSTSKPVTGIFLPPITSAGGPVTVATANPGKCLSCTNSTFTFTTCRILHPSDITQVTPSSGFPSLSCGSSGSSSSNTAVNSPALSYRLSIGESITNRRDSTTTFSSTMSLAKLLQERGISAKVYHSPISENPLQPLPKSLAIPSTPPNSPSHSPCPSPLPFEPRVHLSENFLASRPAETFLQEMYGLRPSRNPPDVGQLKMNLVDRLKRLGIARVVKNPGAQENGRCQEAEIGPQKPDSAVYLNSGSSLLGGLRRNQSLPVIMGSFAAPVCTSSPKMGVLKED
modifications: LD655 dye on the SNAP tag (imaging assays)
B1: the binding result in test [1] was “binds”.

B2: TRAK2^1-400 (domain or fragment, human, UniProt O60296 1-400, looked up)
chain: MSQSQNAIFTSPTGEENLMNSNHRDSESITDVCSNEDLPEVELVSLLEEQLPQYRLKVDTLFLYENQDWTQSPHQRQHASDALSPVLAEETFRYMILGTDRVEQMTKTYNDIDMVTHLLAERDRDLELAARIGQALLKRNHVLSEQNESLEEQLGQAFDQVNQLQHELCKKDELLRIVSIASEESETDSSCSTPLRFNESFSLSQGLLQLEMLQEKLKELEEENMALRSKACHIKTETVTYEEKEQQLVSDCVKELRETNAQMSRMTEELSGKSDELIRYQEELSSLLSQIVDLQHKLKEHVIEKEELKLHLQASKDAQRQLTMELHELQDRNMECLGMLHESQEEIKELRSRSGPTAHLYFSQSYGAFTGESLAAEIEGTMRKKLSLDEESSLFKQKAQ
modifications: LD555 or LD655 dye on the SNAP tag
For the molecule B2, in test [1], the binding result was “binds”.

B3: full-length TRAK1^1-953 (natural protein, human, UniProt Q9UPV9 1-953, looked up)
chain: MALVFQFGQPVRAQPLPGLCHGKLIRTNACDVCNSTDLPEVEIISLLEEQLPHYKLRADTIYGYDHDDWLHTPLISPDANIDLTTEQIEETLKYFLLCAERVGQMTKTYNDIDAVTRLLEEKERDLELAARIGQSLLKKNKTLTERNELLEEQVEHIREEVSQLRHELSMKDELLQFYTSAAEESEPESVCSTPLKRNESSSSVQNYFHLDSLQKKLKDLEEENVVLRSEASQLKTETITYEEKEQQLVNDCVKELRDANVQIASISEELAKKTEDAARQQEEITHLLSQIVDLQKKAKACAVENEELVQHLGAAKDAQRQLTAELRELEDKYAECMEMLHEAQEELKNLRNKTMPNTTSRRYHSLGLFPMDSLAAEIEGTMRKELQLEEAESPDITHQKRVFETVRNINQVVKQRSLTPSPMNIPGSNQSSAMNSLLSSCVSTPRSSFYGSDIGNVVLDNKTNSIILETEAADLGNDERSKKPGTPGTPGSHDLETALRRLSLRRENYLSERRFFEEEQERKLQELAEKGELRSGSLTPTESIMSLGTHSRFSEFTGFSGMSFSSRSYLPEKLQIVKPLEGSATLHHWQQLAQPHLGGILDPRPGVVTKGFRTLDVDLDEVYCLNDFEEDDTGDHISLPRLATSTPVQHPETSAHHPGKCMSQTNSTFTFTTCRILHPSDELTRVTPSLNSAPTPACGSTSHLKSTPVATPCTPRRLSLAESFTNTRESTTTMSTSLGLVWLLKERGISAAVYDPQSWDRAGRGSLLHSYTPKMAVIPSTPPNSPMQTPTSSPPSFEFKCTSPPYDNFLASKPASSILREVREKNVRSSESQTDVSVSNLNLVDKVRRFGVAKVVNSGRAHVPTLTEEQGPLLCGPPGPAPALVPRGLVPEGLPLRCPTVTSAIGGLQLNSGIRRNRSFPTMVGSSMQMKAPVTLTSGILMGAKLSKQTSLR
modifications: LD655 dye on the SNAP tag (imaging assays)
In the case of B3, in test [1], the binding result is “binds”.

B4: TRAK2^1-360 (domain or fragment, human, UniProt O60296 1-360, looked up)
chain: MSQSQNAIFTSPTGEENLMNSNHRDSESITDVCSNEDLPEVELVSLLEEQLPQYRLKVDTLFLYENQDWTQSPHQRQHASDALSPVLAEETFRYMILGTDRVEQMTKTYNDIDMVTHLLAERDRDLELAARIGQALLKRNHVLSEQNESLEEQLGQAFDQVNQLQHELCKKDELLRIVSIASEESETDSSCSTPLRFNESFSLSQGLLQLEMLQEKLKELEEENMALRSKACHIKTETVTYEEKEQQLVSDCVKELRETNAQMSRMTEELSGKSDELIRYQEELSSLLSQIVDLQHKLKEHVIEKEELKLHLQASKDAQRQLTMELHELQDRNMECLGMLHESQEEIKELRSRSGPTAHL
modifications: LD555 or LD655 dye on the SNAP tag (imaging assays)
For B4, in test [2], the “landing rate of kinesin/TRAK2 1-360 complexes, increase by 50 nM MAP7” value was 2 fold.

B5: TRAK1^1-360 (domain or fragment, human, UniProt Q9UPV9 1-360, looked up)
chain: MALVFQFGQPVRAQPLPGLCHGKLIRTNACDVCNSTDLPEVEIISLLEEQLPHYKLRADTIYGYDHDDWLHTPLISPDANIDLTTEQIEETLKYFLLCAERVGQMTKTYNDIDAVTRLLEEKERDLELAARIGQSLLKKNKTLTERNELLEEQVEHIREEVSQLRHELSMKDELLQFYTSAAEESEPESVCSTPLKRNESSSSVQNYFHLDSLQKKLKDLEEENVVLRSEASQLKTETITYEEKEQQLVNDCVKELRDANVQIASISEELAKKTEDAARQQEEITHLLSQIVDLQKKAKACAVENEELVQHLGAAKDAQRQLTAELRELEDKYAECMEMLHEAQEELKNLRNKTMPNTTS
modifications: LD555 or LD655 dye on the SNAP tag (imaging assays)
As for B5, in test [2], the “landing rate of kinesin on MTs with TRAK1 1-360 against kinesin alone” value turned out to be 1.5 fold and the “landing rate of kinesin/TRAK1 1-360 complexes, increase by 50 nM MAP7” value is above 7 fold.
